Results published in article PMC6536551, “The viral protein corona directs viral pathogenesis and amyloid aggregation” (Nature Communications, 2019).

Target: the molecule itself
Assay: thioflavin-T fluorescence

B1: NNFGAIL peptide (model amyloidogenic peptide derived from islet amyloid polypeptide, IAPP) (peptide)
peptide: NNFGAIL
notes: […]; text and methods print NNFGAIL; source: synthetic peptide (Pepscan)
**Q.** Does B1 bind?
**A.** binds
